The results in this text go back to paper PMC4428439, “Anti-adaptors use distinct modes of binding to inhibit the RssB-dependent turnover of RpoS (σ^S) by ClpXP” (Frontiers in Molecular Biosciences, 2015).

T1: RssBC, C-terminal domain of RssB (residues 131-337), untagged, purified (E. coli, UniProt P0AEV1 131-337)
T1 construct: RssB, E. coli, C-terminal effector domain, residues 131-337; also called C-terminal effector domain of RssB; source: E. coli, Ub-fusion system, purified (IMAC, SEC)
T1 sequence (looked up): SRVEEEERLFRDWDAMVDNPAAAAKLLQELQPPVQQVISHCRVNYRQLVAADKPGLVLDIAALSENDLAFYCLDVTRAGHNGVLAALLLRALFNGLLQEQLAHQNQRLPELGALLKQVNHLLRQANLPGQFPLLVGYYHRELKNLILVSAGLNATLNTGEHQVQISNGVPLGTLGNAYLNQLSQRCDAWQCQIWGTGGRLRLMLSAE

B1: His10-tagged IraD (natural protein, E. coli, UniProt P39375 1-130, looked up)
chain: MMRQSLQAVLPEISGNKTSSLRKSVCSDLLTLFNSPHSALPSLLVSGMPEWQVHNPSDKHLQSWYCRQLRSALLFHEPRIAALQVNLKEAYCHTLAISLEIMLYHDDEPLTFDLVWDNGGWRSATLENVS
notes: IraD, anti-adaptor induced by DNA damage, E. coli; source: E. coli, overexpressed, purified (essentially as Bougdour et al., 2008)
B2: RssB, full-length, untagged, purified (natural protein, E. coli, UniProt P0AEV1 1-337, looked up)
chain: MTQPLVGKQILIVEDEQVFRSLLDSWFSSLGATTVLAADGVDALELLGGFTPDLMICDIAMPRMNGLKLLEHIRNRGDQTPVLVISATENMADIAKALRLGVEDVLLKPVKDLNRLREMVFACLYPSMFNSRVEEEERLFRDWDAMVDNPAAAAKLLQELQPPVQQVISHCRVNYRQLVAADKPGLVLDIAALSENDLAFYCLDVTRAGHNGVLAALLLRALFNGLLQEQLAHQNQRLPELGALLKQVNHLLRQANLPGQFPLLVGYYHRELKNLILVSAGLNATLNTGEHQVQISNGVPLGTLGNAYLNQLSQRCDAWQCQIWGTGGRLRLMLSAE
notes: RssB (SprE), adaptor protein of ClpXP, E. coli; residues 1-337 by the printed domain limits; Monomeric and dimeric RssB were separated by preparative SEC; degradation assays used monomeric RssB; also called SprE; full-length RssB; source: E. coli, Ub-fusion system, purified (IMAC, preparative SEC)
B3: IraP with a C-terminal His10-tag, purified (natural protein, E. coli, UniProt P0AAN9 1-86, looked up)
chain: MKNLIAELLFKLAQKEEESKELCAQVEALEIIVTAMLRNMAQNDQQRLIDQVEGALYEVKPDASIPDDDTELLRDYVKKLLKHPRQ
notes: IraP, anti-adaptor induced by phosphate starvation, E. coli; also called His10-tagged IraP; source: E. coli, overexpressed, purified (essentially as Bougdour et al., 2008); not shown: His10, C-terminal, kept
B4: RssBN, N-terminal domain of RssB (residues 1-129), untagged, purified (domain or fragment, E. coli, UniProt P0AEV1 1-129, looked up)
chain: MTQPLVGKQILIVEDEQVFRSLLDSWFSSLGATTVLAADGVDALELLGGFTPDLMICDIAMPRMNGLKLLEHIRNRGDQTPVLVISATENMADIAKALRLGVEDVLLKPVKDLNRLREMVFACLYPSMF
notes: RssB, E. coli, N-terminal domain, residues 1-129; also called N-domain of RssB; receiver domain; source: E. coli, Ub-fusion system, purified (IMAC, SEC)

Data set [1] concerns the molecule itself. The data set is described as follows: SEC; Superdex 75; 5 nmol of IraD, RssBN or the IraD-RssBN complex; chilled GF buffer (20 mM Tris-HCl pH 7.5, 10 mM MgCl2, 0.1 mM EDTA, 1 mM DTT, 140 mM NaCl, 5% glycerol, 0.005% Triton X-100); fractions on SDS-PAGE, CBB. (In general: Size exclusion chromatography separates by hydrodynamic size, large species first.)
For data set [2], the target named is B2. The data set can be described thus: pull-down; purified His10-tagged IraD immobilised on Ni-NTA agarose beads; purified untagged RssB, RssBN or RssBC added; washed, eluted with imidazole; SDS-PAGE, CBB. To be noted: both partners purified.
Data set [3] deals with the molecule itself. The data set can be described thus: SEC; preparative grade SEC in the purification of untagged RssB, separating monomeric and dimeric RssB.
In data set [4] the target is T1, RssBC, C-terminal domain of RssB …. The data set is described as follows: pull-down; purified IraP immobilised on Ni-NTA agarose beads via a C-terminal His10-tag; purified RssB, RssBN or RssBC added; washed, eluted with imidazole; immunoblotting. The conditions noted are these: both partners purified.

In the case of B1, the “stoichiometry N” value in data set [1] amounted to 2. Moreover, the binding result in data set [2] is recorded as “binds”.
In the case of B2, the “stoichiometry N” value in data set [3] is 2.
As for B3, the binding result in data set [4] was “binds”.
As to B4, the “stoichiometry N” value in data set [1] turned out to be 2.

A word on the stoichiometry N: it is the number of molecules, sites or subunits per partner or assembly.
